Values quoted from earlier work in patent publication US20180161372A1, “COMPOSITION FOR TREATING BRAIN LESIONS” (ORGANES TISSUS REGENERATION REPARATION REMPLACEMENT - OTR3, priority 2015, published 2018).

Test system: patients
Conditions: strictly selected stroke patients

In the case of “rt-PA: t-PA (tissue plasminogen activator), thrombolysis approved for ischemic stroke”, the “patients developing a cerebral hemorrhage following administration” value is given as 13%.
